Results reported in IntAct's records for PubMed 31515488.

B1: EF-hand calcium-binding domain-containing protein 4B (Homo sapiens), Q9BSW2 (parent)
chain: MAAPDGRVVSRPQRLGQGSGQGPKGSGACLHPLDSLEQKETQEQTSGQLVMLRKAQEFFQTCDAEGKGFIARKDMQRLHKELPLSLEELEDVFDALDADGNGYLTPQEFTTGFSHFFFSQNNPSQEDAGEQVAQRHEEKVYLSRGDEDLGDMGEDEEAQFRMLMDRLGAQKVLEDESDVKQLWLQLKKEEPHLLSNFEDFLTRIISQLQEAHEEKNELECALKRKIAAYDEEIQHLYEEMEQQIKSEKEQFLLKDTERFQARSQELEQKLLCKEQELEQLTQKQKRLEGQCTALHHDKHETKAENTKLKLTNQELARELERTSWELQDAQQQLESLQQEACKLHQEKEMEVYRVTESLQREKAGLLKQLDFLRERNKHLRDERDICFQKNKAAKANTAASRASWKKRSGSVIGKYVDSRGILRSQSEEEEEVFGIPRRSSLGLSGYPLTEEEPGTGEPGPGGPYPRPLRRIISVEEDPLPQLLDGGFEQPLSKCSEEEEVSDQGVQGQIPEAPPLKLTPTSPRGQPVGKEALCKEESSPSAPDRLFKIVFVGNSAVGKTSFLRRFCEDRFSPGMAATVGIDYRVKTLNVDNSQVALQLWDTAGQERYRCITQQFFRKADGVIVMYDLTDKQSFLSVRRWLSSVEEAVGDRVPVLLLGNKLDNEKEREVPRGLGEQLATENNLIFYECSAYSGHNTKESLLHLARFLKEQEDTVREDTIQVGHPAKKKSCCG
partner: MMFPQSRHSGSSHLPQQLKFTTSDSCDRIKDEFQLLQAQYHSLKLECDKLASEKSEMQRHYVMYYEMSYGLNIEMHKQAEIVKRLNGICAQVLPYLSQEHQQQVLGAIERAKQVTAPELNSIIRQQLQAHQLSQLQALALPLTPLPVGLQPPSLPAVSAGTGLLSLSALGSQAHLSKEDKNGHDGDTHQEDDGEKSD
B2: E3 ubiquitin-protein ligase CCNB1IP1 (Homo sapiens), Q9NPC3 (parent)
chain: MSLCEDMLLCNYRKCRIKLSGYAWVTACSHIFCDQHGSGEFSRSPAICPACNSTLSGKLDIVRTELSPSEEYKAMVLAGLRPEIVLDISSRALAFWTYQVHQERLYQEYNFSKAEGHLKQMEKIYTQQIQSKDVELTSMKGEVTSMKKVLEEYKKKFSDISEKLMERNRQYQKLQGLYDSLRLRNITIANHEGTLEPSMIAQSGVLGFPLGNNSKFPLDNTPVRNRGDGDGDFQFRPFFAGSPTAPEPSNSFFSFVSPSRELEQQQVSSRAFKVKRI
partner: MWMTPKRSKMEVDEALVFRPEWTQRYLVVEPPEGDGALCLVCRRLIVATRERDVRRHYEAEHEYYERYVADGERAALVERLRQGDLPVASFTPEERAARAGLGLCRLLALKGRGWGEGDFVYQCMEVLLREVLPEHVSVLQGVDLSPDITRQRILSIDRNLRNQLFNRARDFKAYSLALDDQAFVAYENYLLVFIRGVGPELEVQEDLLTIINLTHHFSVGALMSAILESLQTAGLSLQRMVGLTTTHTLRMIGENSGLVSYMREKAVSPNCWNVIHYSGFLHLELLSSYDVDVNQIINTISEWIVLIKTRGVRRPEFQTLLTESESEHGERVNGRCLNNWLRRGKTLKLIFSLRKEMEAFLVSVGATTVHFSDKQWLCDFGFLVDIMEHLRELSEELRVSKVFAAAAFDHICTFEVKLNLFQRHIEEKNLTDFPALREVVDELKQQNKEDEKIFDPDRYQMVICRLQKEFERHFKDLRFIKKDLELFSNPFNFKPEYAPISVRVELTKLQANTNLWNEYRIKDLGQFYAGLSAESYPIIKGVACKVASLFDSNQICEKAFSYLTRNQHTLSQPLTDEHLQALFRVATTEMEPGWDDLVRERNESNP
B3: Zinc finger protein Aiolos (Homo sapiens), Q9UKT9 (parent)
chain: MEDIQTNAELKSTQEQSVPAESAAVLNDYSLTKSHEMENVDSGEGPANEDEDIGDDSMKVKDEYSERDENVLKSEPMGNAEEPEIPYSYSREYNEYENIKLERHVVSFDSSRPTSGKMNCDVCGLSCISFNVLMVHKRSHTGERPFQCNQCGASFTQKGNLLRHIKLHTGEKPFKCHLCNYACQRRDALTGHLRTHSVEKPYKCEFCGRSYKQRSSLEEHKERCRTFLQSTDPGDTASAEARHIKAEMGSERALVLDRLASNVAKRKSSMPQKFIGEKRHCFDVNYNSSYMYEKESELIQTRMMDQAINNAISYLGAEALRPLVQTPPAPTSEMVPVISSMYPIALTRAEMSNGAPQELEKKSIHLPEKSVPSERGLSPNNSGHDSTDTDSNHEERQNHIYQQNHMVLSRARNGMPLLKEVPRSYELLKPPPICPRDSVKVINKEGEVMDVYRCDHCRVLFLDYVMFTIHMGCHGFRDPFECNMCGYRSHDRYEFSSHIARGEHRALLK
partner: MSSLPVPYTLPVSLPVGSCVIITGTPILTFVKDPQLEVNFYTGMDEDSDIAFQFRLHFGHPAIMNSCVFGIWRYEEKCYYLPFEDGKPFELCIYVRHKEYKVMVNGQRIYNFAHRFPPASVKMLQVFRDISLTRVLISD
B4: Cytochrome P450 2S1 (Homo sapiens), Q96SQ9 (parent)
chain: MEATGTWALLLALALLLLLTLALSGTRARGHLPPGPTPLPLLGNLLQLRPGALYSGLMRLSKKYGPVFTIYLGPWRPVVVLVGQEAVREALGGQAEEFSGRGTVAMLEGTFDGHGVFFSNGERWRQLRKFTMLALRDLGMGKREGEELIQAEARCLVETFQGTEGRPFDPSLLLAQATSNVVCSLLFGLRFSYEDKEFQAVVRAAGGTLLGVSSQGGQTYEMFSWFLRPLPGPHKQLLHHVSTLAAFTVRQVQQHQGNLDASGPARDLVDAFLLKMAQEEQNPGTEFTNKNMLMTVIYLLFAGTMTVSTTVGYTLLLLMKYPHVQKWVREELNRELGAGQAPSLGDRTRLPYTDAVLHEAQRLLALVPMGIPRTLMRTTRFRGYTLPQGTEVFPLLGSILHDPNIFKHPEEFNPDRFLDADGRFRKHEAFLPFSLGKRVCLGEGLAKAELFLFFTTILQAFSLESPCPPDTLSLKPTVSGLFNIPPAFQLQVRPTDLHSTTQTR
partner: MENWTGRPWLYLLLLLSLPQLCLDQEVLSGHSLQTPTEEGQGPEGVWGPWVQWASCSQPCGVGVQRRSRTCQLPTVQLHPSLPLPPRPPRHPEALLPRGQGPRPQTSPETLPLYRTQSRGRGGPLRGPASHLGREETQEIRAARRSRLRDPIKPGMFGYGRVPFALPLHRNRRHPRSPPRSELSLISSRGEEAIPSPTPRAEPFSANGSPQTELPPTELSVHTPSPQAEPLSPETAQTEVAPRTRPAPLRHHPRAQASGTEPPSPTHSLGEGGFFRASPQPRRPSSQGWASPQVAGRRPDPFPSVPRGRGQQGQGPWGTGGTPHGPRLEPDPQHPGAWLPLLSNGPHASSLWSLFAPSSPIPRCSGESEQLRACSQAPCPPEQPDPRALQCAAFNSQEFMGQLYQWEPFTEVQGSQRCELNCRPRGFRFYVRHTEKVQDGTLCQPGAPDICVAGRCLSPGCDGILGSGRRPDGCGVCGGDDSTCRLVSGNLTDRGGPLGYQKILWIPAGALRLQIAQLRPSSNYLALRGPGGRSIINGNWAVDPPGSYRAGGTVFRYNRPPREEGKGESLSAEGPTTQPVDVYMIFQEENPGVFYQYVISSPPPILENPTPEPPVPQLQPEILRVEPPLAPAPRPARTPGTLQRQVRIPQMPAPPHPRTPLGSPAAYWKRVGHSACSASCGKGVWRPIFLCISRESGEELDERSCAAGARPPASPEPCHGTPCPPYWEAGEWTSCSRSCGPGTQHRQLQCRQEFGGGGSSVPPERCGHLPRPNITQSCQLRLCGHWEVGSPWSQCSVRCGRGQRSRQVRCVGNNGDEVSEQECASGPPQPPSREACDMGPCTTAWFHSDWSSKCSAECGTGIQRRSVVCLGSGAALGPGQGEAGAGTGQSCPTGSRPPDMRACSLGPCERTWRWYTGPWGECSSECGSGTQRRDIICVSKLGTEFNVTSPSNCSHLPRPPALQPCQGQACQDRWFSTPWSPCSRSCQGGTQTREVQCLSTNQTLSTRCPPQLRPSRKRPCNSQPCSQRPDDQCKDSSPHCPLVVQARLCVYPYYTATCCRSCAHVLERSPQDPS
B5: Protein BANP (Homo sapiens), Q8N9N5 (parent)
chain: MMSEHDLADVVQIAVEDLSPDHPVVLENHVVTDEDEPALKRQRLEINCQDPSIKTICLRLDSIEAKLQALEATCKSLEEKLDLVTNKQHSPIQVPMVAGSPLGATQTCNKVRCVVPQTTVILNNDRQNAIVAKMEDPLSNRAPDSLENVISNAVPGRRQNTIVVKVPGQEDSHHEDGESGSEASDSVSSCGQAGSQSIGSNVTLITLNSEEDYPNGTWLGDENNPEMRVRCAIIPSDMLHISTNCRTAEKMALTLLDYLFHREVQAVSNLSGQGKHGKKQLDPLTIYGIRCHLFYKFGITESDWYRIKQSIDSKCRTAWRRKQRGQSLAVKSFSRRTPNSSSYCPSEPMMSTPPPASELPQPQPQPQALHYALANAQQVQIHQIGEDGQVQVGHLHIAQVPQGEQVQITQDSEGNLQIHHVGQDGQLLEATRIPCLLAPSVFKASSGQVLQGAQLIAVASSDPAAAGVDGSPLQGSDIQVQYVQLAPVSDHTAGAQTAEALQPTLQPEMQLEHGAIQIQ
partner: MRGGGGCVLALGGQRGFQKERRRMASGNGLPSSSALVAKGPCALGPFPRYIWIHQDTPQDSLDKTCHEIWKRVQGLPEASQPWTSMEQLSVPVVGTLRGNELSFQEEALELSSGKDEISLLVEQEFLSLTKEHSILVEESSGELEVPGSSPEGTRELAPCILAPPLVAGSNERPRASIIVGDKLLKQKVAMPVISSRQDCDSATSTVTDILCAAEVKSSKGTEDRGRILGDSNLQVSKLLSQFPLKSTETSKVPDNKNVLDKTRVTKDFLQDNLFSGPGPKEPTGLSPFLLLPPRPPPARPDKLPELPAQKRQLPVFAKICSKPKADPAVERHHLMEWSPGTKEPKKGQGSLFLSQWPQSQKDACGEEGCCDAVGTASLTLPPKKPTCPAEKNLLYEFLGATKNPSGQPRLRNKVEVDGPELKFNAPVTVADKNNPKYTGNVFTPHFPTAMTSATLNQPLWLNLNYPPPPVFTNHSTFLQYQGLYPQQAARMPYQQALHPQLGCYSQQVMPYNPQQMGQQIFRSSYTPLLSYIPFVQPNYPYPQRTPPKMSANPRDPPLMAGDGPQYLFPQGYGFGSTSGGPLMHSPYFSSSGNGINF
B6: G patch domain and ankyrin repeat-containing protein 1 (Homo sapiens), O95872 (parent)
chain: MSRPLLITFTPATDPSDLWKDGQQQPQPEKPESTLDGAAARAFYEALIGDESSAPDSQRSQTEPARERKRKKRRIMKAPAAEAVAEGASGRHGQGRSLEAEDKMTHRILRAAQEGDLPELRRLLEPHEAGGAGGNINARDAFWWTPLMCAARAGQGAAVSYLLGRGAAWVGVCELSGRDAAQLAEEAGFPEVARMVRESHGETRSPENRSPTPSLQYCENCDTHFQDSNHRTSTAHLLSLSQGPQPPNLPLGVPISSPGFKLLLRGGWEPGMGLGPRGEGRANPIPTVLKRDQEGLGYRSAPQPRVTHFPAWDTRAVAGRERPPRVATLSWREERRREEKDRAWERDLRTYMNLEF
partner: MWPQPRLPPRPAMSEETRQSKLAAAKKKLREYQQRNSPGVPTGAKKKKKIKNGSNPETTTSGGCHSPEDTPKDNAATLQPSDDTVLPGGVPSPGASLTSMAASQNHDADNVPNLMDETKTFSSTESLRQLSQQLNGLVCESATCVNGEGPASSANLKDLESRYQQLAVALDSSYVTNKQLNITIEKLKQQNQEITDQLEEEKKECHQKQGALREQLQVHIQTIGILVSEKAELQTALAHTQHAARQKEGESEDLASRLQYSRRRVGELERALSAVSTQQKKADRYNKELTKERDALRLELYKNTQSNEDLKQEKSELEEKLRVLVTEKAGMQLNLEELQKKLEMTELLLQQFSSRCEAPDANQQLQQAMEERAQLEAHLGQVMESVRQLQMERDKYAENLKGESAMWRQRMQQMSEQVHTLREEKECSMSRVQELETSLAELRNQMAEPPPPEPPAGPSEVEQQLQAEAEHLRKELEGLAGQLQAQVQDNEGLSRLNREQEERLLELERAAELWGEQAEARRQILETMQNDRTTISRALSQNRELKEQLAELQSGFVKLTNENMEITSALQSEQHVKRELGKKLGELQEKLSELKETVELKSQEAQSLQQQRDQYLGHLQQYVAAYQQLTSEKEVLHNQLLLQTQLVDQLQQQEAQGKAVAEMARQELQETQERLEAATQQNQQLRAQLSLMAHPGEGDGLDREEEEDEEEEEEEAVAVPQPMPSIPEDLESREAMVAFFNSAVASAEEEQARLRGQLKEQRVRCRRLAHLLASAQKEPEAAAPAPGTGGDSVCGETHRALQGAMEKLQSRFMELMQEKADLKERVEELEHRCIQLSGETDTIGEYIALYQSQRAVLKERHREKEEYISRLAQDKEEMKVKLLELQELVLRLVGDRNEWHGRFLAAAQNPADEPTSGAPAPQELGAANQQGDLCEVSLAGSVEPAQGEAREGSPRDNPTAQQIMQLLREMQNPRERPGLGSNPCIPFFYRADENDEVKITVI

Variants of: B1
Conditions: with tle5_human TLE5, Q08117

| effect of a mutation on the interaction | Variant |
| --- | --- |
| with no effect | H212Q |

Variants of: B2
Conditions: with epmip_human EPM2AIP1, Q7L775

| Variant | effect of a mutation on the interaction |
| --- | --- |
| F41L | with no effect |
| R104H | disrupting interaction strength |
| Y106H | with no effect |

Now from value to variant:

| effect of a mutation on the interaction | Variant |
| --- | --- |
| with no effect | N212D |
| with no effect | T187A |

Variants of: B3
Conditions: with ppl13_human LGALS14, Q8TCE9

| effect of a mutation on the interaction | Variant |
| --- | --- |
| with no effect | N119D |
| with no effect | A24V |

Variants of: B4
Conditions: with atl4_human ADAMTSL4, Q6UY14

| effect of a mutation on the interaction | Variant |
| --- | --- |
| disrupting interaction strength | R166H |

Variants of: B5
Conditions: with ca094_human C1orf94, Q6P1W5

| effect of a mutation on the interaction | Variant |
| --- | --- |
| with no effect | P348S |

Variants of: B6
Conditions: with goga2_human GOLGA2, Q08379

| effect of a mutation on the interaction | Variant |
| --- | --- |
| with no effect | R41L |
